These results are taken from US8071348B2, “Protein tyrosine phosphatase substrate-trapping double mutant and uses thereof” (Albert Einstein College of Medicine of Yeshiva University, priority 2002, dated 2011).

Changes are numbered by the printed parent chain. Names and notes keep the numbering of the source. Where two headings read alike, the source gives them in different places. [ ]: non-standard residue; d: D form. F2Pmp = N[C@@H](Cc1ccc(C(F)(F)P(=O)(O)O)cc1)C(=O)O

Data set [1] in a line: Kinetic constants for PTP1B-catalyzed hydrolysis of pNPP. Type of data set: biochemical. The settings on record: pNPP as substrate. From the text:
(§1) The catalytic domain of PTP1B (residues 1 to 321) was used for in vitro study. PTP1B mutants, C215S, D181A, and Q262A, were described previously (9, 25, 26). PTP1B double mutants, D181A/C215S and C215S/Q262A, were generated by PCR reactions, according to the standard procedure of the Quick-Change™ site-directed mutagenesis kit (Stratagene), using pT7-7/PTP1B/C215S as a template. PTP1B double mutants, D181A/C215E and D181A/Q262A, were generated by similar PCR procedures, using pT7-7/PTP1B/D181A as a template. The recombinant wild-type and mutant PTP1Bs were expressed in E. coli, and purified to homogeneity as described (25, 27). Protein concentration was determined from absorbance measurement at 280 nm, using an absorbance coefficient of 1.24 for 1 mg/ml PTP1B.
PTP activity was assayed at 25° C. and pH 7.0, in a reaction mixture (0.2 ml) containing pNPP concentrations ranging from 0.2 to 5 Km. The following buffered solution was used for activity measurements: pH 7.0, 50 mM 3,3-dimethylglutarate, 1 mM EDTA; the ionic strength was 0.15 M, as adjusted by addition of NaCl. Initial rate measurements for the enzyme-catalyzed hydrolysis of pNPP were conducted as previously described (26). Michaelis-Menten kinetic parameters were determined from a direct fit of the data to the Michaelis-Menten equation, using the nonlinear regression program, KINETASYST (Intellikinetics, State College, Pa.).

The target in data set [2] is T1, EGFR 988-998 peptide DADEpYLIPQQG.
T1 chain: DADEXLIPQQG

Data set [3] relates to Ac-Asp-Ala-Asp-Glu-F2Pmp-Leu-NH2. To be noted: cited from earlier work.
The test system of another data set is EGF receptor. Kind of data set: Substrate protection: EGF receptor tyrosine phosphorylation in COS1 cells expressing PTP1B forms (anti-pTyr Western blot). Format: cell-based, Monkey. To be noted: COS1 cell lysates, anti-pTyr immunoblot (FIG. 4). Here is the method: FIG. 4 sets forth Western blots (WB) that show the level of tyrosine phosphorylation in the epidermal growth factor receptor (EGFR) upon expression of the wild-type and mutant PTP1Bs (4 μg plasmid/60 mm dish) in COS1 cells. Samples (50 μg total protein) were taken from the lysates of COS1 cells transfected with 4 μg of pJ3H plasmids expressing HA-tagged wild-type PTP1B, D181A, C215S, D181A/Q262A, or D181A/C215S. These samples were loaded into each lane for SDS-PAGE electrophoresis, and transferred onto a nitrocellulose membrane. The proteins on the membrane were first immunoblotted with anti-pTyr HRP conjugate (upper panel). The membrane was then stripped and re-probed with anti-hemagglutinin (anti-HA) HRP conjugate (lower panel).
The hemagglutinin-tagged (HA-tagged) full-length human wild-type PTP1B in pJ3H expression vector was a gift from Dr. Chemoff (30). The HA-tagged PTP1B mutants, C215S, D181A, D181A/C215S, and D181A/Q262A, were generated by PCR reactions, according to the standard procedure of the Quick-Change™ site-directed mutagenesis kit (Stratagene), using pJ3H-HA-PTP1B as a template. All mutations were verified by DNA sequencing.
Monkey kidney COS1 cells (ATCC: CRL-1650) were maintained in Dulbecco's modified Eagle's minimum essential medium (DMEM), supplemented with 10% fetal bovine serum (Life Technologies, Inc.), penicillin (50 units/ml), streptomycin (50 μg/ml), and L-glutamine (2 mM) under a humidified atmosphere containing 5% CO2. In transient transfection experiments, COS1 cells were inoculated at a density of 2×10^5 cells/60-mm dish, and grown overnight in DMEM containing 10% fetal bovine serum. Transfection was performed using LipoTAXI^R according to the manufacturer's recommendations (Stratagene, Cedar Creek, Tex.). Each transfection assay included 4 μg of purified DNA mixed with LipoTAXI^R in a 1:5 DNA:lipid ratio per 60-mm dish of cells. Following transfection, the cells were exchanged to normal culture medium, and maintained for 44 to 48 h at 37° C. and 5% CO2. The efficiency of transfection, as assessed by 5-bromo-4-chloro-3-indolyl-β-D galactoside (X-Gal) staining of pCMV-β-gal-transfected (β-Gal staining kit, Invitrogen) COS cells, was 25%.
The transfected cells (treated with or without EGF) were lysed with “lysis buffer” containing 50 mM Tris-HC1 (pH 7.5), 5 mM EDTA, 150 mM NaCl, 10 mM sodium phosphate, 10 mM sodium fluoride, 5 mM iodoacetic acid, 1 mM benzamidine, 1% Triton X-100, 10 μg/ml leupeptin, and 5 μg/ml Aprotinin. Lysate protein concentration was estimated using Bio-Rad protein assay reagent (Bio-Rad, Hercules, Calif.).
For immunoprecipitation, 1 mg of cell lysate was immunoprecipitated overnight with 30 μl of agarose-conjugated anti-hemagglutinin antibody at 4° C. Immunocomplexes were washed four times with the cell lysis buffer, and boiled for 5 min in SDS-PAGE sample buffer. Proteins in the cell lysate were separated by 8% SDS-PAGE under reducing conditions, according to the method of Laemmli (31), followed by blotting onto nitrocellulose membranes (Protran, Schleicher & Schuell). The nitrocellulose membranes were blocked with 5% non-fat dry milk in Tris-buffered saline/Tween (TBST) buffer (20 mM Tris-HC1, 150 mM NaCl, 0.1% Tween-20; pH 7.6) for 1 h at 25° C.
Thereafter, blots were incubated overnight with primary antibodies diluted in TBST containing 5% non-fat dry milk at 4° C. […]
On the technique in general: In western blotting, separated proteins are transferred to a membrane and probed.

Data set [4] deals with EGFR^988-998 peptide, DADEpYLIPQQG. In words: Kinetic constants for PTP1B-catalyzed hydrolysis of pTyr-containing EGFR988-998 peptide. Type of data set: biochemical. The settings on record: EGFR988-998 peptide as substrate.
Source text: as §1
(§2) All assays were performed at 25° C. in buffer (pH 7.0, ionic strength=0.15 M) containing 50 mM 3,3-dimethylglutarate and 1 mM EDTA. A continuous spectrophotometric assay, previously described (28), was employed to determine kcat and Km for the pTyr-containing peptides. The dephosphorylation reaction was monitored by either an increase in absorbance at 282 nm, or an increase in fluorescence at 305 nm. Fluorometric and absorbance determinations were performed on a Perkin-Elmer LS50B fluorometer and a Perkin-Elmer Lambda 14 spectrophotometer, respectively. The instruments were equipped with a water-jacketed cell holder, permitting maintenance of the reaction mixture at the desired temperature (25° C.).

Data set [5] concerns the target T2, EGFR^988-998 peptide, DADEpYLIPQQG (Homo sapiens, UniProt P18031, D181A).
T2 construct: The catalytic domain of PTP1B (residues 1 to 321) was used for in vitro study; made in house; host or cells: E. coli (pT7-7 plasmids)
T2 sequence (P18031 1-321 D181A): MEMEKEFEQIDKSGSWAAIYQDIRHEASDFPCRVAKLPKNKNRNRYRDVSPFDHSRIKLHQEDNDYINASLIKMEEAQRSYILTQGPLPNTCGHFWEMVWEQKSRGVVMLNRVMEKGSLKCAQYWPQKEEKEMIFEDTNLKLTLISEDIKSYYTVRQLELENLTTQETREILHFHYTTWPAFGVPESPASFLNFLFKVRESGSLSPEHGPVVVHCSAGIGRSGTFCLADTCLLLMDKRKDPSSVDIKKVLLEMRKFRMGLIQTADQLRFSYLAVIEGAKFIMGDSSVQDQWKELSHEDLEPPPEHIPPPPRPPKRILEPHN
The data set is described as above. Type of data set: biochemical. The settings on record: EGFR988-998 peptide as substrate.
Source text: as §1, §2

The target in data set [6] is T3, Ac-Asp-Ala-Asp-Glu-F2Pmp-Leu-NH2.
T3 construct: Synthetic hexapeptide printed in three-letter code; also called F2Pmp-containing peptide; non-hydrolyzable substrate analog
T3 peptide: Ac-DADE[F2Pmp]L-NH2
Kind of data set: ITC; complex titration curve, no Kd obtained. On the technique in general: Isothermal titration calorimetry measures the heat released or taken up as one component is titrated into another.

Data set [7] addresses Ac-Asp-Ala-Asp-Glu-F2Pmp-Leu-NH2. Kind of data set: Isothermal titration calorimetry, binding of PTP1B and mutants to F2Pmp peptide. To be noted: ITC, 25° C. and pH 7.0; data from this study. Here is the method:
FIG. 3 portrays calorimetric isothermal titration for the reaction of peptide Ac-Asp-Ala-Asp-Glu-F2Pmp-Leu-NH2 with PTP1B/D181A/Q262A. The upper graph depicts raw data for thirty 8-μl injections of the peptide (0.5 mM stock) into the isothermal cell containing 32 μM PTP1B/D181A/Q262A, at 4-min intervals and 25° C. Both the protein and the peptide were in 50 mM 3,3-dimethylglutarate buffer (I=0.15 M, pH 7.0) containing 1 mM DTT. The lower graph depicts an integration curve showing experimental points that were obtained by integration of the above peaks as plotted against the molar ratio of the peptide to PTP1B/D181A/Q262A within the reaction cell. The solid line corresponds to the best fit to the data according to the nonlinear, least-squares regression algorithm, ORIGIN (29).
All isothermal titration calorimetry experiments were performed using an MCS Isothermal Titration Calorimetry System from Microcal Inc. (Northampton, Mass.). […] The ionic strength of the buffer was adjusted to 0.15 M by addition of NaCl. Protein concentration in the calorimeter cell was 27-85 μM, while the ligand concentration in the syringe was 0.37-1 mM.
The PTP1B samples used in the isothermal titration calorimetry experiments were dialyzed completely against buffer. High-concentration stock solutions were prepared for ligands with distilled water, and adjusted to pH 7.0. Stock was diluted at least 26-fold with 50 mM 3,3-dimethylglutarate buffer before titration. Protein dilution during titration was determined by titration of buffer into the protein solution. […] The heat of ligand dilution was corrected by subtracting the average heat of injection after saturation.
The binding data were analyzed using ORIGIN software (29). Binding constant, K, and enthalpy change, ΔH, were used to calculate free energy change, ΔG, and entropy change, ΔS, according to equation [1]: −RTLnK=ΔG=ΔH−TΔS [1] where R is the gas constant and T is the absolute temperature.

The target in data set [8] is T3, Ac-Asp-Ala-Asp-Glu-F2Pmp-Leu-NH2. Kind of data set: ITC, 25 C, pH 7.0. On the procedure:
(§3) All isothermal titration calorimetry experiments were performed using an MCS Isothermal Titration Calorimetry System from Microcal Inc. (Northampton, Mass.). Experiments at pH 7.0 were conducted at 25° C., in 50 mM 3,3-dimethylglutarate buffer containing 1 mM DTT. The ionic strength of the buffer was adjusted to 0.15 M by addition of NaCl. Protein concentration in the calorimeter cell was 27-85 µM, while the ligand concentration in the syringe was 0.37-1 mM.
(§4) A typical titration curve and binding isotherm for the binding of D181A/Q262A to Ac-Asp-Ala-Asp-Glu-F_2Pmp-Leu-NH_2 is shown in FIG. 3. From curve-fitting of the binding isotherms, the stoichiometry for the binding of the peptide to D181A/Q262A was determined to be 1:1.

Data set [9] shares this target. In words: ITC, 25 C, pH 7.0. Here is the method:
as §3
The PTP1B samples used in the isothermal titration calorimetry experiments were dialyzed completely against buffer. High-concentration stock solutions were prepared for ligands with distilled water, and adjusted to pH 7.0. […] Protein dilution during titration was determined by titration of buffer into the protein solution. […] The heat of ligand dilution was corrected by subtracting the average heat of injection after saturation.
as §4

B1: PTP1B/D181A, catalytic domain (residues 1 to 321) (protein)
chain: T2 sequence (P18031 1-321 D181A)
B1: in [1], the “Km, fold lower than wild-type enzyme” value turned out to be 30 fold and the “kcat, fold lower than wild-type enzyme” value is 320 fold. For the same molecule, in data set [1] (25° C. and pH 7.0), the Michaelis-Menten constant (Km) came out at 80 ± 30 µM and the kcat entry is recorded as “(3.1 ± 0.3) × 10^−2 s^−1”. Besides, the Km (hydrolysis of the EGFR 988-998 peptide, 25 C, pH 7.0) in data set [2] worked out at 56 µM. In addition, the “binding, fold tighter than the C215S mutant” value in [3] (F2Pmp peptide, previously determined (24)) is reported as 5 fold. The Kd in data set [3] (ITC, 25° C. and pH 7.0, data from (24)) was 40 ± 10 nM. Moreover, the “level of pTyr in the EGF receptor / enhancement of EGF receptor phosphorylation” value in the data set with EGF receptor is given as “higher in cells expressing the D181A, rather than the C215S, mutant”. In data set [4] (25° C. and pH 7.0), the Michaelis constant (Km) was 56 ± 2 µM and the kcat result is “(6.5 ± 0.2) × 10^−2 s^−”. Also, in [5], the “Km, fold higher than PTP1B (wild-type)” value was 22 fold and the “kcat, fold lower than PTP1B (wild-type)” value is recorded as 920 fold.

B2: PTP1B/D181A/C215S, catalytic domain (residues 1 to 321) (enzyme, human, UniProt P18031 1-321, looked up)
chain: T2 sequence (P18031 1-321 D181A) with C215S
Molecule B2 returned a binding stoichiometry in data set [6] of 0.1. Moreover, in the data set on EGF receptor, the “level of pTyr in the EGF receptor / enhancement of EGF receptor phosphorylation” value was “comparable affinity to that of C215S”. The phosphatase activity entry in [4] was “no measurable activities”.

B3: PTP1B/D181A/C215E, catalytic domain (residues 1 to 321) (enzyme, human, UniProt P18031 1-321, looked up)
chain: T2 sequence (P18031 1-321 D181A) with C215E
notes: range 1-321; Used in vitro (ITC)
B3 had a Kd in data set [7] of 1300 nM. Moreover, in [8], the “fold lower affinity than the C215S mutant” value worked out at 7 fold and the “fold lower affinity than the D181A mutant” value came out at 32 fold. Also, in data set [4], the phosphatase activity entry is listed as “no measurable activities”. Besides, in data set [9], the TΔS is -20.4 kcal/mol, the ΔG was -8 kcal/mol and the ΔH is -28.4 kcal/mol.

Usually Km stands for the concentration of substrate that gives half-maximal velocity. In general, Kd refers to the constant that tells how readily two partners part at equilibrium.
